Legend:
[1] = target: T1, rhRIG-I (236-925), CARD-less (Homo sapiens, UniProt O95786 236-925); assay: fluorescence anisotropy; no nucleotide; 4 mM MgCl2; affinity similar to RNA, Kd only in figure; FP: 20 mM Hepes pH 7.5, 150 mM NaCl, 2 mM TCEP, 4 mM MgCl2, 5% glycerol, 25 C, 2.5 nM labeled oligo; EMSA: 30 min on ice, 6% native gel, 0.5x TBE; conditions: protein: recombinant; tags: N-terminal His-tag, removed by TEV; label: 5' FAM; 25-mer described as palindromic; partly self-complementary
T1 sequence: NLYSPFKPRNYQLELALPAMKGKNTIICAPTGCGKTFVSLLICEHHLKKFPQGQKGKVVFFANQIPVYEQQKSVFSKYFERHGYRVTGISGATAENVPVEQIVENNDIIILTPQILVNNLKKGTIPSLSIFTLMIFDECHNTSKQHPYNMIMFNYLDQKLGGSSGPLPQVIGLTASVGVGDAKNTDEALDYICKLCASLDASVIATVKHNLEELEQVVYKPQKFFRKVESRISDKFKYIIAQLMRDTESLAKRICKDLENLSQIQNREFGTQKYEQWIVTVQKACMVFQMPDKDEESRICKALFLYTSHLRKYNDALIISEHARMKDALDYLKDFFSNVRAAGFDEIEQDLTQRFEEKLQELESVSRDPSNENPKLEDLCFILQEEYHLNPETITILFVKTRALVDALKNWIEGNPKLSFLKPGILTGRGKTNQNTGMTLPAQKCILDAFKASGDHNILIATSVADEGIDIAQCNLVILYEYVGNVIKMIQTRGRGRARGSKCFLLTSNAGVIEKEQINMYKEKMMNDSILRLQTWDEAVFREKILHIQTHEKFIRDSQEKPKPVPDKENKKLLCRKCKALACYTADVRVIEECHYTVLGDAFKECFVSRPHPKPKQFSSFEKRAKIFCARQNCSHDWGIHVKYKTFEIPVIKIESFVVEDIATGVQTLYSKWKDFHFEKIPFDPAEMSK

[2] = target: T1, rhRIG-I (236-925), CARD-less; assay: EMSA; ODN stock 2.5 uM, protein 0-32 uM, on ice; FP: 20 mM Hepes pH 7.5, 150 mM NaCl, 2 mM TCEP, 4 mM MgCl2, 5% glycerol, 25 C, 2.5 nM labeled oligo; EMSA: 30 min on ice, 6% native gel, 0.5x TBE; conditions: protein: recombinant; tags: N-terminal His-tag, removed by TEV; 25-mer described as palindromic; partly self-complementary
[3] = target: T1, rhRIG-I (236-925), CARD-less; assay: fluorescence anisotropy; no nucleotide; 4 mM MgCl2; Kd only in figure; FP: 20 mM Hepes pH 7.5, 150 mM NaCl, 2 mM TCEP, 4 mM MgCl2, 5% glycerol, 25 C, 2.5 nM labeled oligo; EMSA: 30 min on ice, 6% native gel, 0.5x TBE; conditions: protein: recombinant; tags: N-terminal His-tag, removed by TEV; label: 5' FAM on strand 1; blunt

B1: ODN M362, FAM (ssDNA)
DNA: TCGTCGTCGTTCGAACGACGTTGAT
modifications: complete phosphorothioate backbone
B1: binds [1].

B2: ODN M362, biotinylated (ssDNA)
DNA: TCGTCGTCGTTCGAACGACGTTGAT
modifications: complete phosphorothioate backbone
B2: binds [2].

B3: 12-mer 5'ppp dsRNA (dsRNA)
RNA 1: CAUGUGGAGCCC
RNA 2: GGGCUCCACAUG
modifications: 5' triphosphate on strand 2
B3: binds [3].

Source: publication PMC11601584, “The RNA receptor RIG-I binding synthetic oligodeoxynucleotide promotes pneumonia survival”
